According to US20220332804A1 (CSL INNOVATION, published 2022):
Numbering of substitutions follows the chain as printed.

How the values were obtained:
Test in all cases: SPR, antibody captured, C2 as analyte;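 further: biacore SPR at 37 °C, anti-C2 mAbs captured via goat anti-human IgG on CM5 chips, double-referenced sensorgrams fit to a 1:1 kinetic or steady-state model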
human C2 S708A = target: T1, human C2 S708A (human, UniProt P06681 21-752)
T1 sequence: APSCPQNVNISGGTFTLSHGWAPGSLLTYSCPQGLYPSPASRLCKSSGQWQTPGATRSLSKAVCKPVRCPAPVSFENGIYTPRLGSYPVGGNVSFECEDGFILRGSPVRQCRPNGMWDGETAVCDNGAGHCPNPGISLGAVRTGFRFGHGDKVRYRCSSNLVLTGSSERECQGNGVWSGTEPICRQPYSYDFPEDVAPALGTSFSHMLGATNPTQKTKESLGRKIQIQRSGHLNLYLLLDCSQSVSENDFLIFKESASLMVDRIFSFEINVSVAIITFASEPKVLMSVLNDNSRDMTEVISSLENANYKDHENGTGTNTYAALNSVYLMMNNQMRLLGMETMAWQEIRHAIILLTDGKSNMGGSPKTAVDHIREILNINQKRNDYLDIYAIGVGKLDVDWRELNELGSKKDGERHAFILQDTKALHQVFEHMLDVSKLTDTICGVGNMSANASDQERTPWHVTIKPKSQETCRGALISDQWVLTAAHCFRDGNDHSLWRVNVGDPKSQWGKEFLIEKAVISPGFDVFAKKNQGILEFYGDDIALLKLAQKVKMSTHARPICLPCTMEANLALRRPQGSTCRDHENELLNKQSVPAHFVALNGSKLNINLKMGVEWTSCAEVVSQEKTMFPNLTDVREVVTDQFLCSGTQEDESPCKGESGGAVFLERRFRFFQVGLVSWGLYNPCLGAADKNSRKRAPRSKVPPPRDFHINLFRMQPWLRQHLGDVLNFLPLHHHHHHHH

human C2 F270A = target: T2, human C2 F270A (human, UniProt P06681 21-752)
T2 sequence: T1 sequence with F250A, A688S

human C2 G414A = target: T3, human C2 G414A (human, UniProt P06681 21-752)
T3 sequence: T1 sequence with G394A, A688S

human C2 L706A = target: T4, human C2 L706A (human, UniProt P06681 21-752)
T4 sequence: T1 sequence with L686A, A688S

B1: RF16-226 (antibody, human IgG4 S228P, lambda)
heavy: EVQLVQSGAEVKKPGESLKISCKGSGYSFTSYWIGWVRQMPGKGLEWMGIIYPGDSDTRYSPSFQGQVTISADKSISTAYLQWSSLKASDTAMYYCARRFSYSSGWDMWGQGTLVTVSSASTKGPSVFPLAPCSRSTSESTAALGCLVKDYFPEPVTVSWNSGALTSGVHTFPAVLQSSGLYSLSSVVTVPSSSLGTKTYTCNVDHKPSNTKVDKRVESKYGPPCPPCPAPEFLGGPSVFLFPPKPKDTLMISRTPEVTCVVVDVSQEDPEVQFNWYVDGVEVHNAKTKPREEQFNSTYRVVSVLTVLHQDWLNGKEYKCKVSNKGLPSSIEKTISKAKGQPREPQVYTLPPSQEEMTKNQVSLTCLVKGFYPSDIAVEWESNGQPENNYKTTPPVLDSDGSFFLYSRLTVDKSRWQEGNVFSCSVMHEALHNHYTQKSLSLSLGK
light: SYELTQPPSVSVSPGQTARITCSGDALTSKYVAWYQQKSGLAPLLVIYEDTRRPSGIPAKFSGSSSGSVATLTISGAHGDDEADYYCYSTDASGHQRVFGGGTKLTVLSQPKAAPSVTLFPPSSEELQANKATLVCLISDFYPGAVTVAWKADGSPVKAGVETTKPSKQSNNKYAASSYLSLTPEQWKSHRSYSCQVTHEGSTVEKTVAPTECS
notes: pH-dependent anti-C2 antibody from a phage display library; also called WT
- Kd (human C2 S708A): 21.1 nM
- Kd (human C2 F270A): 96.8 nM
- Kd (human C2 G414A): 11.2 nM
- Kd (human C2 L706A): 229 nM
